From patent US20230012273A1 (Boehringer Ingelheim, published 2023) come the findings set out here.

The labels stand for the following.
B1: Antibody E2 (antibody, human IgG1, kappa, L234A L235A, V domains shown)
VH: QVQLQESGPGLVRPSETLSLTCTVSGGSIRNYYWSWIRQPPGKGLEWIGFIYYNGRTFYNPSLKSRVTISLDMSINQFSLKMTSVTAADTAVYYCARVRAYSGIGLDGTDVWGQGTTVTVSS
VL: DIVMTQSPLSLPVTPGEPASISCKSSQSLLYSNGYAYLDWYLQRPGQSPQLLIYLGSNRASGVPDRFSGSGSGTDFTLKISRVEAEDVGVYYCMQALQTPLTFGGGTKVEIKR
B2: Antibody E6 (antibody, human IgG1, kappa, L234A L235A, V domains shown)
VH: B1 VH with M73K, I75K
VL: B1 VL
B3: Antibody E8 (antibody, human IgG1, kappa, L234A L235A, V domains shown)
VH: B1 VH with I48M, Y53D, I75M
VL: B1 VL with L55Q, Y91F
B4: Antibody E13 (antibody, human IgG1, kappa, L234A L235A, V domains shown)
VH: B1 VH with N54T
VL: B1 VL with L55Q, Y91F
B5: Antibody E14 (antibody, human IgG1, kappa, L234A L235A, V domains shown)
VH: B1 VH with M73K, I75K
VL: B1 VL with G34A, A36N
B6: Antibody E7 (antibody, human IgG1, kappa, L234A L235A, V domains shown)
VH: B1 VH with M73T, I75K
VL: B1 VL with L55Q, Y91F
B7: Antibody E5 (antibody, human IgG1, kappa, L234A L235A, V domains shown)
VH: B1 VH with M73K, I75K
VL: B1 VL with L55Q, Y91F
B8: Antibody E17 (antibody, human IgG1, kappa, L234A L235A, V domains shown)
VH: B1 VH with I48M, Y53D, I75M
VL: B1 VL with G34A, A36N
B9: Antibody E21 (antibody, human IgG1, kappa, L234A L235A, V domains shown)
VH: B1 VH with N54T, I75K
VL: B1 VL with G34A, A36N
B10: Antibody E12 (antibody, human IgG1, kappa, L234A L235A, V domains shown)
VH: B1 VH with I75K
VL: B1 VL with G34A, A36N
B11: Antibody E18 (antibody, human IgG1, kappa, L234A L235A, V domains shown)
VH: B1 VH with N54T, I75K
VL: B1 VL
B12: Antibody E19 (antibody, human IgG1, kappa, L234A L235A, V domains shown)
VH: B1 VH with N54T, I75K
VL: B1 VL with L55Q, Y91F
B13: Antibody E9 (antibody, human IgG1, kappa, L234A L235A, V domains shown)
VH: B1 VH
VL: B1 VL with G34A, A36N
B14: Antibody E20 (antibody, human IgG1, kappa, L234A L235A, V domains shown)
VH: B1 VH with N54T
VL: B1 VL with G34A, A36N
B15: Antibody E15 (antibody, human IgG1, kappa, L234A L235A, V domains shown)
VH: B1 VH with N54T
VL: B1 VL

Changes are numbered by the printed parent chain.

Broadly, the Kd is the equilibrium constant for the complex coming apart.

T5 sequence (Q9P1W8 29-360): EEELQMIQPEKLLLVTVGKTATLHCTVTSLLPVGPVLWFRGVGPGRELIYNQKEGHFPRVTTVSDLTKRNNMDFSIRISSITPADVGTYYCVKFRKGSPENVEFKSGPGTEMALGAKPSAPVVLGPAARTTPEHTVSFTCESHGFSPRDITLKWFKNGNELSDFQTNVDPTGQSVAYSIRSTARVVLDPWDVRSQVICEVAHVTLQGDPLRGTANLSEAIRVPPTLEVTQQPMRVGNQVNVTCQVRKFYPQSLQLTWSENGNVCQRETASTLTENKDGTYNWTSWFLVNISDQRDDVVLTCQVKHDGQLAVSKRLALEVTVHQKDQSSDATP

The target of one assay is T1, human SIRPαV1 extracellular domain + His-tag (NP_542970.1) (human, UniProt P78324 31-373).
T1 construct: also called hSIRPαV1; HuSIRPαV1
T1 sequence (P78324 other isoform, or with tags, fused parts or gaps): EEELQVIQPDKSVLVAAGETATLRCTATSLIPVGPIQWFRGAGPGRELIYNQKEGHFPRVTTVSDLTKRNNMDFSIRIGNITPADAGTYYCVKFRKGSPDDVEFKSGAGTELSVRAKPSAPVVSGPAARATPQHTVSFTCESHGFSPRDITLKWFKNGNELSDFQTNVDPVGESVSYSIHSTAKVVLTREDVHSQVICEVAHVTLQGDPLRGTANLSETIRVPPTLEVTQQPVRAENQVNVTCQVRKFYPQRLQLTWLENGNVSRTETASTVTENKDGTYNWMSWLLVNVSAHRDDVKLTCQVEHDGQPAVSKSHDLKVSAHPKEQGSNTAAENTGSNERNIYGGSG
Kind of assay: SPR, Ab captured, ECD-His analyte. The protocol:
(§1) The binding affinity of anti-SIRPα antibodies to the various SIRPα analytes is determined by surface plasmon resonance (SPR) using a ProteOn XPR36 (Bio-Rad). The running buffer for this experiment and all dilutions (except where stated) are done in 1×HBS-EP+. […] The sensorchip is deactivated with 1M ethanolamine HCl for 420 sec at a flowrate of 10 μl/min.
(§2) The analyte is injected over the captured antibody for 300 sec at a flowrate of 30 μl/min. The dissociation is done for 600 sec. Two-fold serial dilutions of each SIRP protein (Extracellular Domain+His-Tag) are injected as analyte with the highest concentrations indicated in table 36 below.
A general note: Surface plasmon resonance follows binding to a sensor surface in real time, without labels.
Take B1: the Kd was 0.912 nM.
Consider B2, for which the Kd was determined as 1.03 nM.
On the same count and under the same terms, to B3 belongs 1.21 nM; to B4, 1.7 nM; to B5, 1.84 nM.
Same read-out and setting: in the case of B6 it was 1.2 nM; in that of B7, 1.02 nM.
For B8, the Kd came out at 2.36 nM.
In the case of B9, the Kd turned out to be 4.46 nM.
Still for that read-out and setting: to B10 belongs 1.67 nM; to B11, 2.46 nM.
Take B12: the Kd was determined as 2.52 nM.
On the same count and under the same terms, in the case of B13 it was 1.22 nM; in that of B14, 3.42 nM; in that of B15, 1.91 nM.

For a further assay, the target named is T2, human SIRPαV2 extracellular domain + His-tag (CAA71403.1) (human, UniProt P78324 31-373).
T2 construct: also called hSIRPαV2; HuSIRPαV2
T2 sequence (P78324 other isoform, or with tags, fused parts or gaps): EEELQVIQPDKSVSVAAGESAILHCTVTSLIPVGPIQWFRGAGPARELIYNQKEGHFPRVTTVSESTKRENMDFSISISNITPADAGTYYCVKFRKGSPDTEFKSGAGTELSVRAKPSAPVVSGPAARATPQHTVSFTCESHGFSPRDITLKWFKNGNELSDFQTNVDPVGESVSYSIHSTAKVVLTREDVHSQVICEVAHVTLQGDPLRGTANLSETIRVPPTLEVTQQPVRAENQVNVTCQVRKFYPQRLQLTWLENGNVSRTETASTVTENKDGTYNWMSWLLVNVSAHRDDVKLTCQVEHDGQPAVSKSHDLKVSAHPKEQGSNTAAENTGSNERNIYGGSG
Kind of assay: SPR, Ab captured, ECD-His analyte. The protocol:
as §1, §2
Take B1: the Kd was determined as 0.687 nM.
Regarding B2, the equilibrium dissociation constant (Kd) is 0.875 nM.
With B3, the Kd came out at 0.542 nM.
In the case of B4, the Kd turned out to be 0.69 nM.
Same read-out and setting: to B5 belongs 1.36 nM; to B6, 1.18 nM.
Still for that read-out and setting: to B7 belongs 0.873 nM.
Still for that read-out and setting: in the case of B8 it was 0.797 nM; in that of B9, 1.39 nM; in that of B10, 1.26 nM.
With B11, the Kd was 0.898 nM.
The same measure, in the same setting: to B12 belongs 0.97 nM; to B13, 0.941 nM; to B14, 1.11 nM.
The same measure, in the same setting: to B15 belongs 0.737 nM.

A further assay deals with T3, human SIRPβ1 extracellular domain + His-tag (NP_006056.2) (human, UniProt O00241 30-371).
T3 construct: also called hSIRPβ1; HuSIRPβ1
T3 sequence (O00241 other isoform, or with tags, fused parts or gaps): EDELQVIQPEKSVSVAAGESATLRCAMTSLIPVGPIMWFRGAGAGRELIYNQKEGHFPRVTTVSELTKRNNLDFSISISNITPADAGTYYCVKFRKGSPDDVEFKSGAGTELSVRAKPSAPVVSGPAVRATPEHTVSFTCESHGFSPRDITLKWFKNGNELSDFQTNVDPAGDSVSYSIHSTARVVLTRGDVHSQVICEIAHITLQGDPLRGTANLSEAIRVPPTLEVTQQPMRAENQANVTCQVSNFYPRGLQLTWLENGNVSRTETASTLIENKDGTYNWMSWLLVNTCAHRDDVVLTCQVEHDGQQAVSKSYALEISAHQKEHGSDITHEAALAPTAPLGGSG
The experiment in a line: SPR, Ab captured, ECD-His analyte. The protocol: as §1, §2
For B1, the binding result is listed as “no binding (tested: 1000 nM)”.
For the molecule B2, the binding result is recorded as “no binding (tested: 1000 nM)”.
With B3, the Kd amounted to 2420 nM.
As for B4, the binding result is “no binding (tested: 1000 nM)”.
Same read-out and setting: to B5 belongs “no binding (tested: 1000 nM)”.
With B6, the Kd amounted to 874 nM.
On the same count and under the same terms, in the case of B7 it was 1380 nM.
Consider B8, for which the binding result is listed as “no binding (tested: 1000 nM)”.
The same measure, in the same setting: in the case of B9 it was “no binding (tested: 1000 nM)”.
Take B10: the Kd was 1670 nM.
Regarding B11, the binding result is recorded as “no binding (tested: 1000 nM)”.
In the case of B12, the Kd was found to be 1660 nM.
As to B13, the binding result is “no binding (tested: 1000 nM)”.
For B14, the Kd worked out at 435 nM.
Regarding B15, the binding result is “no binding (tested: 1000 nM)”.

The target in the next assay is T4, human SIRPβL/SIRPβ1v3 extracellular domain + His-tag (NP_001129316.1) (human, UniProt Q5TFQ8 30-371).
T4 construct: also called hSIRPβ1v3; HuSIRPβ1v3
T4 sequence (Q5TFQ8 other isoform, or with tags, fused parts or gaps): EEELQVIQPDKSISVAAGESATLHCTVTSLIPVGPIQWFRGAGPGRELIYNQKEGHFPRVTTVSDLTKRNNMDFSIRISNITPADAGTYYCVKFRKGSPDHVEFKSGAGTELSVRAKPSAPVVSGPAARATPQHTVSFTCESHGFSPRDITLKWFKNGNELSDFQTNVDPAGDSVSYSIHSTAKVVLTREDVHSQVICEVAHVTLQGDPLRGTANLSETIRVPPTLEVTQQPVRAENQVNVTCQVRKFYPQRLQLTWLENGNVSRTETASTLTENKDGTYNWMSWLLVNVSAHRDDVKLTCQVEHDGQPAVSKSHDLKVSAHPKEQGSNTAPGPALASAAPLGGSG
Kind of assay: SPR, Ab captured, ECD-His analyte. The protocol:
as §1, §2
For the molecule B1, the Kd is 1.93 nM.
On to B2, for which the dissociation constant (Kd) came to 2.72 nM.
Still for that read-out and setting: to B3 belongs 2.58 nM.
With B4, the Kd was found to be 4.17 nM.
Take B5: the Kd was determined as 4.8 nM.
For B6, the Kd is 2.21 nM.
Still for that read-out and setting: to B7 belongs 2.72 nM; to B8, 5.32 nM; to B9, 8.84 nM.
Regarding B10, the dissociation constant Kd is 3.43 nM.
Still for that read-out and setting: to B11 belongs 4.8 nM; to B12, 4.74 nM.
Turning to B13, the Kd amounted to 3.16 nM.
Consider B14, for which the Kd is 8.48 nM.
The same measure, in the same setting: to B15 belongs 4.56 nM.

A further assay concerns the target T5, human SIRPγ extracellular domain + His-tag (NP_061026.2) (human, UniProt Q9P1W8 29-360).
T5 construct: also called hSIRPγ; HuSIRPγ
The experiment in a line: SPR, Ab captured, ECD-His analyte. The protocol: as §1, §2
With B1, the binding result is reported as “no binding (tested: 1000 nM)”.
Same read-out and setting: in the case of B2 it was “no binding (tested: 1000 nM)”.
With B3, the binding result was “no binding (tested: 1000 nM)”.
Same read-out and setting: in the case of B4 it was “no binding (tested: 1000 nM)”; in that of B5, “no binding (tested: 1000 nM)”; in that of B6, “no binding (tested: 1000 nM)”.
Still for that read-out and setting: to B7 belongs “no binding (tested: 1000 nM)”.
On to B8, for which the binding result is listed as “no binding (tested: 1000 nM)”.
Same read-out and setting: in the case of B9 it was “no binding (tested: 1000 nM)”.
Same read-out and setting: in the case of B10 it was “no binding (tested: 1000 nM)”.
On to B11, for which the binding result is “no binding (tested: 1000 nM)”.
Same read-out and setting: in the case of B12 it was “no binding (tested: 1000 nM)”; in that of B13, “no binding (tested: 1000 nM)”.
Still for that read-out and setting: to B14 belongs “no binding (tested: 1000 nM)”.
On the same count and under the same terms, in the case of B15 it was “no binding (tested: 1000 nM)”.
